Results taken from patent US20050272635A1 (published 2005).

Target: T1, glycoprotein hormone beta 5 (GPHB5) (human, UniProt Q86YW7 25-130, one N-linked glycosylation (position not given))
T1 construct: Secreted from the CHO 180 cell line co-expressing GPHA2 and GPHB5; also called beta subunit of CGH
T1 sequence: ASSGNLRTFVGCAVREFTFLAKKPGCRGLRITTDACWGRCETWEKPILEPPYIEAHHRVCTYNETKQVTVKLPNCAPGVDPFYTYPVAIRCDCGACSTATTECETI
Test: co-expression in CHO cells; secreted heterodimer

binding result: binds
B1: glycoprotein hormone alpha2 (GPHA2) (ligand)
chain: QEAVIPGCHLHPFNVTVRSDRQGTCQGSHVAQACVGHCESSAFPSRYSVLVASGYRHNITSVSQCCTISGLKKVKVQLQCVGSRREELEIFTARACQCDMCRLSRY
modifications: two N-linked glycosylations (positions not given)
notes: Secreted from the CHO 180 cell line co-expressing GPHA2 and GPHB5; also called Zsig51; alpha subunit of CGH
